{"source": "paper PMC4514675", "about": "“Novel Apo E-Derived ABCA1 Agonist Peptide (CS-6253) Promotes Reverse Cholesterol Transport and Induces Formation of preβ-1 HDL In Vitro” (PLoS ONE, 2015)", "key": {"[1]": {"biological_target": "ABCA1 (human, expressed in BHK cells) (human) (UniProt O95477)", "assay": "cross-linking; intact mifepristone-stimulated BHK-ABCA1 cells in the presence of apo A-I or CS-6253 (0.96 μM), cross-linked or not with 500 μM DSP; lysis with 0.5% n-dodecylmaltoside; SDS-PAGE (4–22.5%), anti-ABCA1 blot; no DTT"}, "ABCA1": {"biological_target": "ABCA1 (Homo sapiens, UniProt O95477)", "sequence (O95477 whole entry)": "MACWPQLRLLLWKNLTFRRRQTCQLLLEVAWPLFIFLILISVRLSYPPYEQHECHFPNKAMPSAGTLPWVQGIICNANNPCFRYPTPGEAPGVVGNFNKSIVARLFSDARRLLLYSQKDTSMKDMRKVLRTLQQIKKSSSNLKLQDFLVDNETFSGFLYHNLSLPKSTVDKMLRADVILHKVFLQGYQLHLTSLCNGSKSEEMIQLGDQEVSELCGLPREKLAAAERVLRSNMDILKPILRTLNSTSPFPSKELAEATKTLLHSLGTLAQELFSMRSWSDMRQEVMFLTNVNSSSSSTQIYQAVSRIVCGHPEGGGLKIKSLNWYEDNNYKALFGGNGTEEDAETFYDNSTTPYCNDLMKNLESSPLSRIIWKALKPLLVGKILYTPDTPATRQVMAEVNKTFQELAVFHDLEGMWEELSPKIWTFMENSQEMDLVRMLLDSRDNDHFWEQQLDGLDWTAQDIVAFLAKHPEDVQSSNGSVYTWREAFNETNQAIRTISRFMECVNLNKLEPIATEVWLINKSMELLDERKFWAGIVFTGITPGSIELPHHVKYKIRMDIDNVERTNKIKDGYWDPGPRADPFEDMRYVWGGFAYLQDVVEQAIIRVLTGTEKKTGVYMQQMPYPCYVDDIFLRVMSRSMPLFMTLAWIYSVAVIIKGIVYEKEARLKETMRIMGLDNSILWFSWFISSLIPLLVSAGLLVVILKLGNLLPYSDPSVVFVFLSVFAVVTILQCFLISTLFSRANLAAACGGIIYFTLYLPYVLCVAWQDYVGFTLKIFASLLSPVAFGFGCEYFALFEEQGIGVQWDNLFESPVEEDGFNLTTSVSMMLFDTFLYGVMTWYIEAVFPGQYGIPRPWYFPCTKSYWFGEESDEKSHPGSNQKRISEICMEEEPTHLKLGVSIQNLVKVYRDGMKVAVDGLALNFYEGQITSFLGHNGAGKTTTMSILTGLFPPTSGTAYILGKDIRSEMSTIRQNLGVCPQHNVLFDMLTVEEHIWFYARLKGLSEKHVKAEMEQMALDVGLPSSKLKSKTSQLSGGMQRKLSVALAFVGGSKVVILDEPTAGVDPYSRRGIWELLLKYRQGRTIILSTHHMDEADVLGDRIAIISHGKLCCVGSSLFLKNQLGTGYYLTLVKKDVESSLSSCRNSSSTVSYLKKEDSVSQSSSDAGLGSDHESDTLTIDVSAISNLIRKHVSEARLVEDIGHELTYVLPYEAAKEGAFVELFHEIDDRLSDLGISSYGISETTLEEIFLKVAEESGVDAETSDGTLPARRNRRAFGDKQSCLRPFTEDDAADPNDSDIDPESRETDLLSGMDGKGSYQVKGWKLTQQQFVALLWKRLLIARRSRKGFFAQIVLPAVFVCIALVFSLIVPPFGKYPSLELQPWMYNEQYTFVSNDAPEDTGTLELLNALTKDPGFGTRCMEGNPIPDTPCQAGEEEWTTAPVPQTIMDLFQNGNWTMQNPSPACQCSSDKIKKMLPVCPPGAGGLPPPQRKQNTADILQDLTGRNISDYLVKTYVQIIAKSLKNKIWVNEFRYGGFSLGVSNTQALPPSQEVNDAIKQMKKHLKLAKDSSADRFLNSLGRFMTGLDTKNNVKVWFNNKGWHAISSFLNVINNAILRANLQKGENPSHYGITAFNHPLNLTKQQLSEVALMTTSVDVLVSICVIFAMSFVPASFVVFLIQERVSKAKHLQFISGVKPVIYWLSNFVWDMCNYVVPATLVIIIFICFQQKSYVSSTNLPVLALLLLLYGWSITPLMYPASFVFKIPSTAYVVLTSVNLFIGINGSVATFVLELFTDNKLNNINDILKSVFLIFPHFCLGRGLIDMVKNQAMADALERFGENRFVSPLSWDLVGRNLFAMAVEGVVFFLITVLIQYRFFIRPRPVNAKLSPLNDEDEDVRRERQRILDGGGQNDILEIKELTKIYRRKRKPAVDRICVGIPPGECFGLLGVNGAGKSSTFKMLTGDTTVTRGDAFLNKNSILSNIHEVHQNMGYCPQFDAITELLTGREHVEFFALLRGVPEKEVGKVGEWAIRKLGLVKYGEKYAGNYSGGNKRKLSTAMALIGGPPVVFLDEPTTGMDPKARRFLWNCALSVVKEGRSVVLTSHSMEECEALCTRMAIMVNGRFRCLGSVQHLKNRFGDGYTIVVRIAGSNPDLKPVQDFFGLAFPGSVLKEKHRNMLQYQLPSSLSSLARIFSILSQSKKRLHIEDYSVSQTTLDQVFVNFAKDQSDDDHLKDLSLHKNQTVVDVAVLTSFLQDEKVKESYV", "assay": "ABCA1-mediated cholesterol efflux from BHK-ABCA1 cells, acceptor in media", "assay_type": "cell-based", "parameters": "expressed in transfected cells; host or cells: BHK cells, stably transfected, induced with 10 nM mifepristone (gift of J. F. Oram)", "conditions": "BHK-ABCA1 induced with mifepristone, 4 h, 37°C, mean ± SD", "excerpt": "BHK cells stably transfected with an ABCA1 or ABCG1 expression vector that is mifepristone inducible and cells transfected with the same vector lacking the ABCA1 cDNA insert (mutant or mock-transfected) were generously provided by the late Dr. John F. Oram from the Department of Medicine, University of Washington, and were characterized and cultured as previously described. […] Mouse-derived peritoneal macrophages J774 were purchased from American Tissue Culture Collection (ATCC TIB-67, Cederlane, Burlington, Canada). For induction of ABCA1, BHK cells were incubated for 18–20 h with 10 nM mifepristone. J774 macrophages were stimulated with 0.3 mM Cpt-cAMP 8-(4-Chlorophenylthio)-cyclic adenosine monophosphate (Sigma). All BHK and J774 macrophages cells were respectively grown and maintained in DMEM and RPMI containing 10% fetal serum until experimental treatment. Studies were carried out on standard 24-well plates (150,000 cells/well) unless stated otherwise\nWe investigated cholesterol efflux from BHK cells after adding lipid free CS-6253 to media cell culture or to human EDTA-plasma which had been stored at -80°C. BHK overexpressing human ABCA1 were labeled with 2 μCi/ml ^3H-free cholesterol (Perkin Elmer, Norwalk, Connecticut) for 24 h. Afterward, BHK-ABCA1 were stimulated with 10 nmol/l mifepristone for 18–20 h (13). Cells were incubated with various doses of acceptor in media for 4 h at 37°C. Alternatively, plasma samples were first pre-incubated for 5 min at 37°C in plasma at mole ratios (10:1 or 1:1 relative to plasma apo A-I). To obtain the HDL fraction, apoB lipoproteins were precipitated from plasma by polyethylene glycol (PEG). […]\nFig 2 Effect of CS-6253 treatment on cholesterol efflux. […] Cholesterol efflux from either ABCA1 cells or control cells to apo A-I (closed circles), and CS-6253 (closed triangles) was determined at the indicated time points. […] ABCA1 was detected from THP-1 foam cells lysis at 4°C with lysis buffer containing 0.5% n-dodecylmaltoside in the presence of a protease inhibitor mixture followed by low speed centrifugation to remove cell debris. Protein concentration was determined by standard assay (Bio-Rad). […] After electrophoresis, ABCA1 was detected by an anti-ABCA1 antibody. […] E. Quantification of FC and CE in foam cells after interaction with CS-6253 and apoA-I. After a period of 4h cholesterol efflux, THP-1 foam cell lipids were extracted with hexane: isopropanol (3v/2v) as under ‘‘Material and Methods’. 3[H]-FC and 3[H]-CE were separated by TLC and located by exposure to iodine vapor, and were scraped off into liquid scintillating vials and assayed for radioactivity. […]"}, "SR-BI": {"system": "SR-BI", "assay": "SR-BI-mediated cholesterol uptake in Fu5AH hepatoma cells", "assay_type": "cell-based, rat", "conditions": "2 h pretreatment of Fu5AH cells; uptake from CS-6253 or apo A-I nHDL", "protocol": "J774 cells were labeled for 24h with ^3[H]-cholesterol (Perkin Elmer, Norwalk, Connecticut) in medium containing 1% FBS. Unlabeled rat Fu5AH hepatoma cells that express high levels of SR-BI, were prepared as described previously. Fu5AH were first seeded on 24-well plate at a density of 2x10^5 cells/well in DMEM plus 10% FBS. SR-BI mediated cholesterol uptake is determined as previously reported. The nHDL particles were generated in media cell culture after 6h incubation of cAMP stimulated J774 cells with increased molar concentrations relative to native apo A-I of lipid free CS-6253 (0, 0.018, 0.071, 0.179, 0.357, 0.536, 0.714, and 1.071 μM). […] The total of ^3H-label present in the lipid extract from cells (% cpm) was quantified by liquid scintillation, and plotted as cell-associated radioactivity as described by Yancey et al.. The contribution of SR-BI to the influx of HDL cholesterol (HDL-C) was assessed by a 2h pretreatment of Fu5AH cells with blocker of lipid transport-1 (BLT-1) to inhibit any transport of cholesterol from HDL to the cells via SR-BI [31]. […]\nFig 10 Uptake of cholesterol to hepatic cells expressing SR-BI from plasma containing HDL-CS-6253 or HDL-apo A-I. A. Fu5AH liver hepatoma cells expression of SR-BI transporter ability. […] Protein concentration was determined by standard assay (Bio-Rad). […]"}, "[2]": {"system": "HDL subpopulations in human plasma", "assay": "HDL subpopulation remodelling (preβ-1 HDL formation) in human plasma, 2D-PAGGE", "conditions": "10 μg lipid free apoA-I: 1 μg plasma apoA-I, 37°C", "protocol": "Apo A-I and CS-6253-containing particles were separated according to charge (agarose, horizontal axis) and size (polyacrylamide gradient, 3% to 20% gel, vertical axis) as previously described. Apo A-I-containing particles were detected by incubating the membranes with immunopurified polyclonal anti-apo A-I antibody (Biodesign). The nHDL-CS-6253 containing particles were detected with immunopurified polyclonal anti-CS-6253 antibody (Biosynthesis Inc., Lewisville, TX). The anti-CS-6253 is a purified rabbit IgG polyclonal antibody specifically produced by Biosynthesis Inc. It is. Cross reactivity of this antibody was verified by Nondenaturing gradient gel electrophoresis (ND-PAGGE) 5% to 35% [24]. The anti-CS-6253 antibody recognizes only CS-6253 peptide in plasma; neither apo A-I nor apo E were detected by this antibody after separation by gradient gel electrophoresis respectively (Fig 1A, 1B and 1C). […]\nFig 8 Time dependent effects of incubation of lipid free CS-6253 with human plasma, on HDL subparticles. […] HDL subpopulations were detected by an anti-apo A-I antibody. […] HDL subfractions were detected by an antibody against CS-6253. […]\nFig 9 Time dependent effects of incubation of lipid free CS-6253 with human plasma, on HDL subparticles. […] Samples were separated by 2D-PAGGE, and ^125I-apoA-I was detected by autoradiography. […]"}, "LCAT": {"system": "LCAT", "assay": "LCAT activity (fractional esterification rate) in human plasma", "assay_type": "biochemical", "conditions": "2 mM DTNB, 1 h, 37°C", "protocol": "Supplementary file pone.0131997.s011.tif: S10 Fig Dynamics of esterification of nascent […]-6253 particles were labelled with cell derived ^3[H]cholesterol and incubated with a normolipidemic plasma at a ratio of (1μg peptide: 10μg plasma apo A-I). LCAT activity was determined after incubation for 1h at 37°C in the presence or absence of 2 mM DTNB. After lipid extraction, ^3[H]cholesterol (unesterified) and ^3[H]CE from plasma were separated by TLC and assayed for radioactivity as described in the online-only Supplementary appendix, S1 Appendix. LCAT activity was measured as CE divided by cholesterol/h. Results are mean (±SD) of triplicate experiments. *P<0.05. (TIF) Click here for additional data file. The fractional cholesterol esterification rate (FER) of LCAT activity was assayed with standard methodology (1,2). […] Cholesterol labeled nHDL particles, Lp-CS-6253 or […] plasma apo A-I), are incubated in total plasma pooled from healthy control subjects for 1h at 37 °C (3). This ratio is selected based on the assumption that the in vivo nascent HDL pool represented ∼10% of total plasma apoA-I mass (4). […] Cellular lipids were extracted and ^3[H]cholesterol and ^3[H]cholesteryl esters (CE) were separated by TLC. The lipids ^3[H]free cholesterol and ^3[H]CE were located by exposure to iodine vapor, and were scraped into liquid scintillating vials and assayed for radioactivity. […]"}}, "note": "Values joined by “and” are separate entries in the source; they are usually repeats but may differ in a detail not shown here. Equal entries are not always repeated.", "data": [{"compound": "ABCA1 (human, expressed in BHK cells), O95477 1-2261", "values": [{"measurement": "ratio of ABCA1 dimer: monomer (cells with CS-6253)", "setting": "[1]", "result": 56.5, "unit": "%"}, {"measurement": "ratio of ABCA1 dimer: monomer (cells with apo A-I)", "setting": "[1]", "result": 69.2, "unit": "%"}, {"measurement": "stoichiometry N", "setting": "[1]", "result": 2}]}, {"compound": "apolipoprotein E [apo E]", "values": [{"measurement": "Km, cholesterol efflux", "setting": "ABCA1", "result": "10.30±2.84 μg/ml and 0.21±0.05 μM"}, {"measurement": "Vmax, cholesterol efflux", "setting": "ABCA1", "result": "11.45±1.16", "unit": "% efflux/4h"}]}, {"compound": "CCCCCCC1CCCC1=NNC(N)=S", "note": "(stereo not drawn) [BLT-1]", "values": [{"measurement": "effect on cholesterol uptake (in words)", "setting": "SR-BI", "result": "inhibited uptake of cholesterol from CS-6253 or apo A-I nHDL"}]}, {"compound": "^125I-lipid free apoA-I: apo A-I iodinated with 125I by Iodo-Gen", "values": [{"measurement": "increase in preβ-1 particles, 5 min (125I-apoA-I control)", "setting": "[2]; 5 min", "result": 0.23, "unit": "fold"}, {"measurement": "increase in preβ-1 particles, 2 h (125I-apoA-I control)", "setting": "[2]; 2 h", "result": 0.4, "unit": "fold"}]}, {"compound": "O=C(O)c1cc(SSc2ccc([N+](=O)[O-])c(C(=O)O)c2)ccc1[N+](=O)[O-]", "note": "[DTNB, 5,5′-Dithiobis(2-nitrobenzoic acid)]", "values": [{"measurement": "inhibition of LCAT", "setting": "LCAT", "result": "98.37 ± 0.08", "unit": "%"}]}]}
